Laboratory results taken from US20240158497A1 (published 2024).

T1: full length human GP130 (L2V natural variant) on HEK293/Stat3-luc/gp130-2X Sort cells (human, UniProt P40189 23-918)
T1 construct: whole, on cells; Stably over-expressed on HEK293 cells, sorted twice for high expression; also called HEK293/gp130 2X Sort
T1 sequence (looked up): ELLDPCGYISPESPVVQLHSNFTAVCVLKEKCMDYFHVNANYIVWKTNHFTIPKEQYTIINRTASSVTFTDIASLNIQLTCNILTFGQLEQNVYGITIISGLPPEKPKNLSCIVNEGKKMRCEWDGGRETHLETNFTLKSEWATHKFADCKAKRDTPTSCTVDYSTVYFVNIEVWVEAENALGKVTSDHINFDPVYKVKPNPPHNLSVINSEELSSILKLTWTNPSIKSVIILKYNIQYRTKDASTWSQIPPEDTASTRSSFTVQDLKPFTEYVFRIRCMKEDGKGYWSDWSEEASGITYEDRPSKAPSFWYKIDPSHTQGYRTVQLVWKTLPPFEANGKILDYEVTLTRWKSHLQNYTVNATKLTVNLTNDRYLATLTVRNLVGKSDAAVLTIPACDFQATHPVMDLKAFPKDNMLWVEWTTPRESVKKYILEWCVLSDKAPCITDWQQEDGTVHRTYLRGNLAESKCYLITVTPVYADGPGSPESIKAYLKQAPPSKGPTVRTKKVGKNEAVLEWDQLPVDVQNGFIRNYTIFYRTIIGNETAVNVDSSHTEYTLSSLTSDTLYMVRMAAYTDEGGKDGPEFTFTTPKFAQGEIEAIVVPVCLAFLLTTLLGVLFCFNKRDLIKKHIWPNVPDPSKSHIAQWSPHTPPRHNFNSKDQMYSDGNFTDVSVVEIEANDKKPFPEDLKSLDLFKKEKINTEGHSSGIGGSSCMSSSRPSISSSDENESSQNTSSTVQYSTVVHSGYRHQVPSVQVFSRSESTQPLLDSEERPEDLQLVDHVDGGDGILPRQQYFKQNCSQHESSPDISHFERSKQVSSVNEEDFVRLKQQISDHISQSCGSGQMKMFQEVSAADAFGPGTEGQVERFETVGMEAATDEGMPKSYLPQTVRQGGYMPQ

T2: extracellular domain of human LEPR, GPI-anchored, on HEK293/hLEPR-GPI cells (human, UniProt P48357 22-839, GPI anchor at the C-terminus ; GPI anchor at the C-terminus, added through the carboxypeptidase M signal peptide. The N-terminal myc-myc tag is not written.)
T2 sequence: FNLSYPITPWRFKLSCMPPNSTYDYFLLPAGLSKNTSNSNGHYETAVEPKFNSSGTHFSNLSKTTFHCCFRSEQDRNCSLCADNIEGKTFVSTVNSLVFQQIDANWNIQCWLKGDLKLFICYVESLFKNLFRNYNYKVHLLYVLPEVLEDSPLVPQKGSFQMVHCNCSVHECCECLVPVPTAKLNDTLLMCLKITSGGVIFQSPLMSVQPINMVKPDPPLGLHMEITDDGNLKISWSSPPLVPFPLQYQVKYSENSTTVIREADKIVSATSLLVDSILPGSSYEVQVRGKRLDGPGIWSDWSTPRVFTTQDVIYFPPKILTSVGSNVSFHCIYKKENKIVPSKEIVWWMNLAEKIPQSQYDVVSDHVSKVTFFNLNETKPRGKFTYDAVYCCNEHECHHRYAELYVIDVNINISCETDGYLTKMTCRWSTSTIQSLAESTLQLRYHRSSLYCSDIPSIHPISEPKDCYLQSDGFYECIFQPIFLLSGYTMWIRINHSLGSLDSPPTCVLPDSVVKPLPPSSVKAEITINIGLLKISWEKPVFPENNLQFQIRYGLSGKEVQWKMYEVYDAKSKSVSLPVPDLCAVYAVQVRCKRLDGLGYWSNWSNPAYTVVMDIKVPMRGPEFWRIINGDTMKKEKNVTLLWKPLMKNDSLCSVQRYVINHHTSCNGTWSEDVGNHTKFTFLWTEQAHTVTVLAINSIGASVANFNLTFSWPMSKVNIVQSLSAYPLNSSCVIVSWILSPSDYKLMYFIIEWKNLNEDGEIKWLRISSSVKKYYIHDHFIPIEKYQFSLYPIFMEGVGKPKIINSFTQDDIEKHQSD


Legend:
[1] = biological target: T1, full length human GP130 (L2V natural …); assay: FACS, 200 nM antibody on HEK293/gp130 2X Sort cells
Procedure: (§1) For the FACS analysis, 0.5×10^6 cells/well of HEK293 parental cells, HEK293/Stat3-luc/gp130-2 X Sort cells, and HEK293/hLEPR-GPI cells, were incubated with 200 nM of the conventional antibodies against either GP130 or LEPR or with LEPRxGP130 bispecific antibodies, along with isotype control antibodies at 4° C. in PBS (without calcium and magnesium) containing 2% FBS.
(§2) Cells were fixed using BD CytoFix™ (Becton Dickinson, #554655) and analyzed on an IQue® (Intellicyt) Flow Cytometer. Unstained and secondary antibody alone controls were also tested for all cell lines. The results were analyzed using ForeCyt® (IntelliCyt) and FlowJo version 10 softwares to determine the geometric means of fluorescence for viable cells.

[2] = biological target: T2, extracellular domain of human LEPR, …; assay: FACS, 200 nM antibody on HEK293/hLEPR-GPI cells, 1 µM Leptin
Procedure: as §1, §2

Binder	Binding Ratio, normalized to unstained sample (FL4-A) [1] [fold]	Binding Ratio, normalized to unstained sample (FL4-A) [2] [fold]
bsAb21236D (bispecific antibody, V domains shown, LEPR x GP130 bispecific with common light chain; also called H4H21236D; bsAb21236 (LEPR × GP130)) VH 1: QVQLQESGPGLVKPSQTLSLTCTVSGGSISSGGDYWSWIRQLPGKGLEWIGYIYYSGSAYYNPSLKSRGTISIDTSKNQFSLKLTSVTAADTAVYFCVKLRFLEWFLGGWFGPWGQGTLVTVSS VH 2: QVQLVESGGGLVKPGGSLRLSCAASGFTFSDYYMTWIRQTPGKGLDWVSYISSSGTNKYNADSVKGRFTISRDNAKNSLYLQMNSLRAEDTAVYYCVRDPPWGMDVWGQGTTVTVSS VL: not shown	132	3600
bsAb21237D (bispecific antibody, V domains shown, LEPR x GP130 bispecific with common light chain; also called H4H21237D; bsAb21237 (LEPR × GP130)) VH 1: EVQLVESGGGLVQPGGSLRLSCAASGFTFSNYGMTWVRQAPGKGLEWVSAITGGGGSTYYSNSVKGRFTISRDNSKNTVYLRMNSVRAEDTAVYYCAKYKWNFVDDWGQGTTVTVSS VH 2: QVQLVESGGGLVKPGGSLRLSCAASGFTFSDYYMTWIRQTPGKGLDWVSYISSSGTNKYNADSVKGRFTISRDNAKNSLYLQMNSLRAEDTAVYYCVRDPPWGMDVWGQGTTVTVSS VL: not shown	169	5930
